Laboratory results published in US20100311696A1, “TOPICAL SKIN TREATMENT COMPOSITION” (priority 2002, published 2010).

What was measured:
[1] = RP-HPLC and HPCE stability analyses of insulin standards and stable insulin compositions, Example 2; format: physicochemical; settings: stored at room temperature
[2] = RP-HPLC and HPCE stability analyses of insulin standards and insulin compositions, Example 1; format: physicochemical; settings: stored at room temperature
Description: This mixture was then divided in half, half of which was stored at 4° C., and the other half stored at room temperature.

[3] = Skin penetration after topical application of the somatotropin composition; format: in vivo; settings: composition topically applied
Description: (§1) A drug delivery composition formulated with somatotropin was formulated in one trial with 85% phosphatidylcholine to which lipoic acid and ascorbyl palmitate were added.

[4] = Dispersion and stability of somatotropin in phosphatidylcholine; format: physicochemical; settings: 85% phosphatidylcholine with lipoic acid and ascorbyl palmitate
Description: as §1

insulin standards: Insulin in 0.01 N HCl: 1 mg/ml Sigma insulin (Example 1), 5 mg/ml (Example 2)
time at which denaturing started (RP-HPLC and HPCE) [1]: ≤ 1 week
time at which denaturing started (RP-HPLC and HPCE) [2]: ≤ 7 days

Somatotropin: Somatotropin (pituitary growth hormone) formulated with 85% phosphatidylcholine, lipoic acid and ascorbyl palmitate
skin penetration [3]: penetrate the skin well
dispersion in phosphatidylcholine [4]: readily dispersed
stability in phosphatidylcholine [4]: remained stable
